From paper PMC9458457, “Processing oxidatively damaged bases at DNA strand breaks by APE1” come the findings set out here.

The series addresses dAPE1 C138A E96Q/D210N (crystallization) (human, UniProt P27695 44-318, E96Q;C138A;D210N;del1-43). Briefly: X-ray crystallography; 5 mM CaCl2 in reservoir; Anisotropy: 50 mM HEPES pH 7.4, 100 mM KCl, 5% glycerol, 20 mM EDTA, 37 C, 10 nM DNA. Crystals: 7-14% PEG 20K, 100 mM sodium citrate pH 5.0, 15% glycerol, 5 mM. Particulars: protein: recombinant; tags: untagged; nicked duplex, blunt ends; 8-oxoG opposite C (strand 1 position 12).

Chain of dAPE1 C138A E96Q/D210N (crystallization) (P27695 44-318 E96Q/C138A/D210N): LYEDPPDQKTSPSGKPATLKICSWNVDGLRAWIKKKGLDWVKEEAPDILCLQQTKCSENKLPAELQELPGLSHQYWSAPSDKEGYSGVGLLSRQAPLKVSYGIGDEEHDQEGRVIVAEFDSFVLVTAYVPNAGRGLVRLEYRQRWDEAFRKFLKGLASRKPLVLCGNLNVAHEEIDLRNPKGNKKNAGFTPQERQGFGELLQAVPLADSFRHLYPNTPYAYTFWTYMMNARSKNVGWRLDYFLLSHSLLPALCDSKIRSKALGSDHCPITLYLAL

B1: 21-mer nicked 3'-8-oxoG opposite C (crystal) (mixed)
DNA 1: GGATCCGTCGACCGCATCAGC
DNA 2: GCTGATGCGG
DNA 3: TCGACGGATCC
modifications: 8-oxoG at 3' end of strand 2 (position 10, written G); 5'-phosphate on strand 3
Regarding B1, the binding result is on record as “binds”.
